{
  "source": "patent US10059956B2",
  "about": "“Glycosyltransferase gene and use thereof” (SUNTORY HOLDINGS LIMITED, priority 2012, dated 2018)",
  "key": {"[1]": {"test_system": "rose (Noblesse, Ritapa Humera)", "assay": "Flower petal pigment analysis of recombinant rose introduced with NmGT8", "format": "in vivo", "from_the_text": "Binary vectors pSPB4577, pSBP4578, pSBP5437 and pSBP5440 for expressing NmGT8 were constructed and introduced into rose (Noblesse, Ritapa Humera). […] Details of the introduced constructs are described below (see FIG. 21).\n(§1) pBINPLUS was used for the basic skeleton of pSPB5477, and three expression cassettes were contained therein (consisting of 1: EI235S promoter, full-length cDNA pansy F3′5′H and mas terminator; 2: EI235S promoter, full-length cDNA torenia flavone synthase and mas terminator; and, 3: EI235S promoter, full-length cDNA NmGT8 and mas terminator).\nas §1, with “of pSPB4578,” for “of pSPB5477,”, “1: perilla anthocyanin 3-acyltransferase promoter (described in PCT/JP2010/053909),” for “1: EI235S promoter,”, “terminator). […]” for “terminator).”\nPigments in the flower petals were analyzed for full-length cDNA torenia flavone synthase and full-length cDNA NmGT8 in those strains in which transcription products were confirmed. […] The flower petal extract was analyzed by high-performance liquid chromatography (Prominence (Shimadzu Corp.)). […] Non-recombinant rose not introduced with the genes was analyzed in the same manner as a control (FIG. 22). Flower petal extract diluted 50-fold was also analyzed with a high-performance liquid chromatograph (Shimadzu Corp.). The Shimadzu LCMS-IF-TOF was used for the detector and flavones were detected at […] ([Api-Glc+H]) and […] ([Lut-Glc+H]). […]"}, "[2]": {"assay": "Enzyme activity of crude enzyme liquid of E. coli expressing NmGT0 to NmGT9 on apigenin (HPLC)", "format": "biochemical, Nemophila menziesii", "details": "80 μl crude enzyme liquid, UDP-glucose, 1 hour at 30° C., HPLC 330 nm", "description": "3 μg aliquots of each of pTOPO-NmGT0 to pTOPO-NmGT9 were treated with their corresponding restrictases followed by recovery of the resulting approximately 1.5 kb DNA fragments. 2 μg of vector pET15b was also treated with restrictase and ligated with the resulting DNA fragments to prepare E. coli expression constructs (pET-NmGT0 to pET-NmGT9).\npET-NmGT0 to pET-NmGT9 were introduced into E. coli strain […] using One Shot BL21 (DE3) (Invitrogen Corp.) in accordance with the protocol recommended by the manufacturer to acquire transformed E. coli. This E. coli was then cultured using the Overnight Express Autoinduction System 1 (Novagen Inc.) in accordance with the protocol recommended by the manufacturer. The transformed E. coli were cultured at 37° C. to an OD600 value of 0.5 in 2 ml of the prepared culture liquid (approx. 4 hours). This E. coli culture liquid was then used as a pre-culture liquid and added to 50 ml of culture liquid followed by final culturing overnight at 27° C. […]\nA reaction liquid prepared by mixing 80 μl of crude enzyme liquid, 20 μl of 5 mM UDP-glucose, 20 μl of 1 M Tris HCl (pH 7.5) and 1 μl of 500 ng/μl apigenin on ice and bringing to a volume of 200 μl with water was held for 1 hour at 30° C. […] The Shimadzu PDA SPD-M10AVP was used for the detector and flavone was detected at 330 nm. […]"}, "[3]": {"details": "recombinant rose flower petal extract, LC-MS"}},
  "data": [
    {"molecule": "NmGT8: nemophila glycosyltransferase (SEQ ID NO: 1/2) having activity that transfers a sugar to the hydroxyl group at the 4′-position of a flavone (protein, listed as Nemophila menziesii) MEKKTIILYPSPGIGHLVSMVELAKLILNREPSYSIIIFISSAPYSTGSSAPYISHVSATTSGISFHHLPVLVLPPNTFSSFEEIAYKIPQLNNPNLKLALQTISKESSDLKAFIIDFFCTAAVEVSSNLEIPTYFFFTSGSSAMCQFLYLPTLHETITQKDLQDPNTYVHIPGIPPIHSLDLPKVLSNRSTVLYKELINTANQMAKCSGILINAFETLEPKAVKALKEGLCTPGMPTPPVYCIGPLIASGDKGNVNDAHGHEILTWLNSQPSKSVVFLCFGSLGTFKEDQLKEIAIGLENSGHRFLWVMKSPPIDDKTKRFLPPPEPDFNVLLPEGFLERTKERGVIVKSWAPQLAILNHDAIGGFVTHCGWNSVLEAICGGVPMLAWPLYAEQRVNRVCMVEEMKVALPLEESVDGFVMASEIEKRVKELVDYESSEAIRDQVKIMSEKAKTAVAVSGSSHDALTKLLDGWK", "values": [
      {"measurement": "flavone 4′-glucoside share of the biosynthesized flavones", "setting": "[1]; [3]", "value": 97.0, "unit": "%"},
      {"measurement": "flavone 7-glucoside share of the biosynthesized flavones", "setting": "[1]; [3]", "value": 3.0, "unit": "%"},
      {"measurement": "flavones detected in flower petals", "setting": "[1]; recombinant rose introduced with flavone synthase and NmGT8, HPLC", "value": "apigenin 4′-glucoside and luteolin 4′-glucoside were detected"},
      {"measurement": "HPLC peak other than substrate", "setting": "[2]", "value": "a peak other than that of the substrate was observed"}
    ]}
  ]
}
